Measured values as given in article PMC3711442 (Nucleic Acids Research, 2013).

T1: GST-BsUDG S189A (Bacillus subtilis, UniProt P39615 1-225, S189A)
T1 sequence: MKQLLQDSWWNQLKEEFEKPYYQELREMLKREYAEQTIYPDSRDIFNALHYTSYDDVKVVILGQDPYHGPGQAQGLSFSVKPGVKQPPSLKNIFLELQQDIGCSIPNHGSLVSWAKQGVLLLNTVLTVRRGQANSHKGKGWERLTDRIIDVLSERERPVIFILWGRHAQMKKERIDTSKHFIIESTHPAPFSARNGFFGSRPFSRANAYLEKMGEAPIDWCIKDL

T2: GST-BsUDG R194S (Bacillus subtilis, UniProt P39615 1-225, R194S)
T2 sequence: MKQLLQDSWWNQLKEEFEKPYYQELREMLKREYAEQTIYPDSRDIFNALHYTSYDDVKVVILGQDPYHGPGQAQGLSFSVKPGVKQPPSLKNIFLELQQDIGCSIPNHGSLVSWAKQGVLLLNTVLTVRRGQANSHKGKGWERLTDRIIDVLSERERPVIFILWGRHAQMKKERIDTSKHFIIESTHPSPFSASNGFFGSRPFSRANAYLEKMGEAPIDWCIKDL

T3: GST-BsUDG, wild type (Bacillus subtilis, UniProt P39615 1-225)
T3 sequence: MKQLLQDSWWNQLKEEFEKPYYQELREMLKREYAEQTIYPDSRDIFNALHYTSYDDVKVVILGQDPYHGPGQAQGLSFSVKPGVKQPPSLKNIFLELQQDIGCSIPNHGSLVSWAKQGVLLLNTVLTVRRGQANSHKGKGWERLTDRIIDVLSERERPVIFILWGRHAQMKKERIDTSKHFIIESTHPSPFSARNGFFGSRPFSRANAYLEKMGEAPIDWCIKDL

B1: phage ϕ29 protein p56, wild type (natural protein, Bacillus subtilis phage ϕ29)
chain: MVQNDFVDSYDVTMLLQDDDGKQYYEYHKGLSLSDFEVLYGNTADEIIKLRLDKVL
B2: phage ϕ29 protein p56 N42R (natural protein, Bacillus subtilis phage ϕ29)
chain: MVQNDFVDSYDVTMLLQDDDGKQYYEYHKGLSLSDFEVLYGRTADEIIKLRLDKVL
B3: phage ϕ29 protein p56 H28K (natural protein, Bacillus subtilis phage ϕ29)
chain: MVQNDFVDSYDVTMLLQDDDGKQYYEYKKGLSLSDFEVLYGNTADEIIKLRLDKVL
B4: phage ϕ29 protein p56 D45R (natural protein, Bacillus subtilis phage ϕ29)
chain: MVQNDFVDSYDVTMLLQDDDGKQYYEYHKGLSLSDFEVLYGNTAREIIKLRLDKVL
B5: phage ϕ29 protein p56 V38E (natural protein, Bacillus subtilis phage ϕ29)
chain: MVQNDFVDSYDVTMLLQDDDGKQYYEYHKGLSLSDFEELYGNTADEIIKLRLDKVL
B6: phage ϕ29 protein p56 D45S (natural protein, Bacillus subtilis phage ϕ29)
chain: MVQNDFVDSYDVTMLLQDDDGKQYYEYHKGLSLSDFEVLYGNTASEIIKLRLDKVL

Key:
Test in all cases: pull-down
GST-BsUDG S189A = biological target: T1, GST-BsUDG S189A
GST-BsUDG R194S = biological target: T2, GST-BsUDG R194S
GST-BsUDG, wild type = biological target: T3, GST-BsUDG, wild type

| Binder | complexes formed relative to wild-type p56 (GST-BsUDG, wild type) [%] | also measured |
| --- | --- | --- |
| B1 | – | reduction in p56 binding relative to wild-type GST-BsUDG (GST-BsUDG S189A): 84%; reduction in p56 binding relative to wild-type GST-BsUDG (GST-BsUDG R194S): 75% |
| B2 | < 10 | – |
| B3 | < 10 | – |
| B4 | < 10 | – |
| B5 | < 10 | – |
| B6 | – | complex formation relative to wild-type p56 (GST-BsUDG, wild type): ~75% |
